Results taken from paper PMC6416337.

Molecular target: 14-3-3λ (UniProt P48349)
Assay: GST pull-down, anti-14-3-3 blot
Conditions: reference: SOS2-JD without PKS5; sites S294

## SOS2 junction domain (SOS2-JD) (from UniProt Q9LDI3) SOS2-JD incubated with PKS5 and ATP
  binding against the reference: stronger
